Data set [1] deals with T1, PecS (VvPecS) (Vibrio vulnificus, UniProt A0A3Q0KXQ7).
T1 construct: gene VV2_0325; His6-tagged VvPecS (BJE04_RS19600; old locus tag VVA0819), dimer
Kind of data set: EMSA: attenuation of purified VvPecS binding to pecS-pecM intergenic DNA (IC50 […]); supported by SYPRO Orange thermal shift (Tm […] to […] °C).

Data set [2] addresses T1, PecS (VvPecS). The description is as above. This is another data set of the same source.
Data set [3] relates to VvPecS (PecS) (Vibrio vulnificus YJ016). Kind of data set: EMSA. As to conditions: EMSA: 0.5 M Tris pH 8.0, 100 mM NaCl, 6% glycerol, 25 uM EDTA, 0.12% Brij-58, 50 ug BSA, 25 C, 20 min; footprint: 20 mM Tris pH 8.0, 50 mM NaCl, 5 mM MgCl2 …. A general note: Mobility shift assays separate free from complexed probe on a gel.
Data set [4] shares this test system. The experiment in a line: EMSA. As to conditions: EMSA: 0.5 M Tris pH 8.0, 100 mM NaCl, 6% glycerol, 25 uM EDTA, 0.12% Brij-58, 50 ug BSA, 25 C, 20 min; footprint: 20 mM Tris pH 8.0, 50 mM NaCl, 5 mM MgCl2 …. The source holds these as a separate data set.

Here are results for 4 compounds from paper PMC6391409, “A role for Vibrio vulnificus PecS during hypoxia” (Scientific Reports, 2019).

Like-named read-outs stand apart in the source and are kept apart here.

T1 sequence (A0A3Q0KXQ7 entry or part of it): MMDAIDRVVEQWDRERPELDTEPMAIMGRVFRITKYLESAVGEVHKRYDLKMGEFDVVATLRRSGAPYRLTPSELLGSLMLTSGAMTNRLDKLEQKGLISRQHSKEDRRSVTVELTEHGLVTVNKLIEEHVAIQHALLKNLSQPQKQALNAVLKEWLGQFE

Take `O=c1[nH]c(=O)c2[nH]c(=O)[nH]c2[nH]1` [urate]: on PecS (VvPecS) [1], the Ki stood at 226 ± 29 µM.

As to `O=c1[nH]c(=O)c2[nH]cnc2[nH]1` [xanthine], the Ki on PecS (VvPecS) [2] is 60 ± 5 µM.

iNR (nsrR-nod intergenic DNA): in data set [3], the Kd was found to be 0.218 µM.

In data set [3], iSM (pecS-pecM intergenic DNA) came in with an IC50 of 366 µM and a Kd of 0.0003 µM. In data set [4], this compound came in with an IC50 of 1500 µM.

The Ki is the dissociation constant of the complex between target and ligand, obtained from inhibition or displacement. As a reminder, the Kd is the constant that tells how readily two partners part at equilibrium. As a reminder, the IC50 is the concentration that gives 50% inhibition. The low end stands for greater potency in that assay, the high end for weaker potency in that assay.
